This is an account of results in US20140303084A1 (Biogen, published 2014).

Square brackets hold non-standard residues; d marks the D form. Ends that are not written are not given here. NMeL = CN[C@@H](CC(C)C)C(=O)O

B1: K-k-MeLeu-TCLASYCWLF (peptide)
peptide: K[dK][NMeL]TCLASYCWLF
modifications: not fully specified; printed as K-k-MeLeu-TCLASYCWLF; cysteine pairing not given here
B2: KKK-k-MeLeu-TCLASYCWLF (peptide)
peptide: KKK[dK][NMeL]TCLASYCWLF
modifications: not fully specified; printed as KKK-k-MeLeu-TCLASYCWLF; cysteine pairing not given here
B3: KK-k-MeLeu-TCLASYCWLF (peptide)
peptide: KK[dK][NMeL]TCLASYCWLF
modifications: not fully specified; printed as KK-k-MeLeu-TCLASYCWLF; cysteine pairing not given here
B4: k-MeLeu-TCLASYCQLF (peptide)
peptide: [dK][NMeL]TCLASYCQLF
modifications: not fully specified (C-terminus); printed as k-MeLeu-TCLASYCQLF; cysteine pairing not given here

This experiment has as its target human Factor IXa (human, UniProt P00740 47-191; P00740 227-461). The experiment can be described thus: cell-based or functional assay.
With HGLADRLTCLSSDCWLQPFGTS, the “EC50 [µM], FXa generation assay” value is over 50 µM.
Next, KKLTCLASYCWLF (not fully specified; D-Lys 1, D-Lys 2, MeLeu 3) [k-k-MeLeu-TCLASYCWLF]: over 2.5 µM; RGSVHQPTCLGGYCGRLHSSWV: over 50 µM; NGGMQKPACLASQCWLFANPLP: over 1 µM.
Next, RGRSAKLTCLASYCWLFFGVIL: under 0.5 µM; RGRSAKLRCLASYCWLFFTVIL: under 0.5 µM; FPIQHKLTCLSSDCWLFPSHSY: over 50 µM.
As to KRYVYRQMCLVSACWLLQLGYA, the “EC50 [µM], FXa generation assay” value is under 0.5 µM.
Next, KGAYQKLTCLASYCLLFLLTAQ: under 0.5 µM; SKWEHQRGCLANNCWLFTLAPG: over 50 µM.
Next, R[dK][NMeL]TCLASYCWLF (cysteine pairing not given here) [R-k-MeLeu-TCLASYCWLF]: over 1 µM; RRAPGKLQCLASYCWLFATAIA: under 0.5 µM; RRAAGKLQCLASYCWLFWTGIA: under 0.5 µM.
Next, QAKMLKLTCLASYCWLFWVTRS: under 0.5 µM.
For the molecule VARASKVECLASYCQLFVGGEV, the “EC50 [µM], FXa generation assay” value was over 1 µM.
Next, VSGTGRLTCVASYCWMFQLGSF: under 0.5 µM.
Next, VSGTGRLTCVASYCWMFQLGIF: under 0.5 µM.
Next, B1: over 1 µM.
RSTVSQMRCLASYCWLFPALVS: the “EC50 [µM], FXa generation assay” value was under 0.5 µM.
Next, B2: over 20 µM; Ac-K[dK][NMeL]TCLASYCWLF (cysteine pairing not given here) [Ac-K-k-MeLeu-TCLASYCWLF]: under 0.5 µM; HLGSPKLTCGASQCWLLNHEVS: over 50 µM.
Next, DAKVAKLRCLGSQCWLLQYAPG: under 0.5 µM; B3: over 10 µM; RQLWNKLTCLASYCALIGLSGT: over 1 µM.
Next, GDSGRKLSCLGSYCWLSVQFMA: under 0.5 µM; RHSNHNLTCQASYCWLLPAGLQ: over 1 µM; QEQPAKLTCRGSYCWLFKRGDQ: over 50 µM.
For HQQRRKLTCLAGYCWLFVLGPS (not fully specified; cysteine pairing not given here), the “EC50 [µM], FXa generation assay” value is over 1 µM.
Next, GASGRRRTCVASYCLLFQSGLP: over 25 µM; RRAPAKLQCLASYCWLFWTGIA: under 0.5 µM; SRQSDKPTCLAISCSLLTSNVR: over 50 µM.
Next, B4: over 1 µM.
Next, RGRSAKLRCLASYCWLFFGVIL: under 0.5 µM; [dK][NMeL]TCLASYCWLF (not fully specified (residue 8); cysteine pairing not given here) [k-MeLeu-TCLAS-(Y-OMe)-CWLF]: under 0.5 µM; VSGTGKLTCLASYCWLFQLGSF: under 0.5 µM.
For the molecule HDSLDQLTCLASVCQLASMGAR, the “EC50 [µM], FXa generation assay” value is over 1 µM.
